One series has as its target T1, HEN1 wt (Arabidopsis thaliana, UniProt Q9C5Q8 1-942).
T1 sequence: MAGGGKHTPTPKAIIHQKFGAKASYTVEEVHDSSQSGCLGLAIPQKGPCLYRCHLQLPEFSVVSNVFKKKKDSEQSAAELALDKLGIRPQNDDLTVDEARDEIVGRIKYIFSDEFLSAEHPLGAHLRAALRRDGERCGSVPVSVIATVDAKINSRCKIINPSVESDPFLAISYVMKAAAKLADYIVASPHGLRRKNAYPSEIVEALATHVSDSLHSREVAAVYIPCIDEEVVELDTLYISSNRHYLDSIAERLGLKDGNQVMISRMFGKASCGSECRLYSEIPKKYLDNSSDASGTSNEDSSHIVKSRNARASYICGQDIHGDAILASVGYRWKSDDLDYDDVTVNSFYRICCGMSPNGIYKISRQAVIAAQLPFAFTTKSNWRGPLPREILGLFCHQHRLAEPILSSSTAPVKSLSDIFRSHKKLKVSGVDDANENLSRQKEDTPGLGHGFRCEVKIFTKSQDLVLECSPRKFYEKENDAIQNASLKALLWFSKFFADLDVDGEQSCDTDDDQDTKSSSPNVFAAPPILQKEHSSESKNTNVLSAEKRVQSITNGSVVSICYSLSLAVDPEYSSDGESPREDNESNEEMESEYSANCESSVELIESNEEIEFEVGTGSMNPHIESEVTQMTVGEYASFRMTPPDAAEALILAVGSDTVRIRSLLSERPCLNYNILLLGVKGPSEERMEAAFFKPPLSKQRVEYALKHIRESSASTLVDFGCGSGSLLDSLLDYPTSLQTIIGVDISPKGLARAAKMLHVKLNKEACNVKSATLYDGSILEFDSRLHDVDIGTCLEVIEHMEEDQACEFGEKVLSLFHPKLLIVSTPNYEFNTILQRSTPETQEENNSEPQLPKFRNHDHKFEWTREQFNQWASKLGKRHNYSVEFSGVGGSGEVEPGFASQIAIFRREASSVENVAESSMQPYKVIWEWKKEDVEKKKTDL
Description: EMSA. (In general: Mobility shift assays separate free from complexed probe on a gel.)

Another series addresses T2, HEN1 Δ38-45 (Arabidopsis thaliana, UniProt Q9C5Q8 1-37+=G+46-942, internal_change).
T2 sequence: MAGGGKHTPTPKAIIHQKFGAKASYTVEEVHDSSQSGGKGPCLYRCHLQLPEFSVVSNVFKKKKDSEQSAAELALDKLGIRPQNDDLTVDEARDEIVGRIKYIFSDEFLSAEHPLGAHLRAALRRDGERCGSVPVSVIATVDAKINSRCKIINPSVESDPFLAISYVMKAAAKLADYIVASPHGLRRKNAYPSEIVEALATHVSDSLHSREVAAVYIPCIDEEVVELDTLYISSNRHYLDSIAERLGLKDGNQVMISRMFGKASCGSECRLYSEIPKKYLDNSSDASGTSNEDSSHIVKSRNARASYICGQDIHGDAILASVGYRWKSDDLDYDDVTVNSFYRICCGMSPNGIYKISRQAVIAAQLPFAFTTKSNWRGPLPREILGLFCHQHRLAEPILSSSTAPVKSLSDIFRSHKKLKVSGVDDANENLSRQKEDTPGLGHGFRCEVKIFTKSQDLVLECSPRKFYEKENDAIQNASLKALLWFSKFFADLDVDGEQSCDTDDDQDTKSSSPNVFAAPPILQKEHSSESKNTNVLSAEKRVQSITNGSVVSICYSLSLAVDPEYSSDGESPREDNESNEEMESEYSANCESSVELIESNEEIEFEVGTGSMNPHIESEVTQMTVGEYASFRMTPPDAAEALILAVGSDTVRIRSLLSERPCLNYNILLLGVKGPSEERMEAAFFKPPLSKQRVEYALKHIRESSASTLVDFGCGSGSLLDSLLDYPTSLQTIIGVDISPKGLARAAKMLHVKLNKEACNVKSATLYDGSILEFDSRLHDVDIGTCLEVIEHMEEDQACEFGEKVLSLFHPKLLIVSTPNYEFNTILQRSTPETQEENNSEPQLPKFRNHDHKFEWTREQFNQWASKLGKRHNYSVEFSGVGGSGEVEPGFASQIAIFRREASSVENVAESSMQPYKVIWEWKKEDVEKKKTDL
Briefly: EMSA.

B1: miR173/miR173* (dsRNA)
RNA 1: UUCGCUUGCAGAGAGAAAUCAC
RNA 2: GAUUCUCUGUGUAAGCGAAAG
B1: the results for the dissociation constant Kd with HEN1 wt and with HEN1 Δ38-45 were 0.43 ± 0.05 nM and 0.79 ± 0.05 nM, respectively.

(Values after publication PMC4357707 (Nucleic Acids Research, 2015).)
